Measured values reported in patent US20200010516A1.

Target: integrin αIIbβ3 on platelets of healthy donors (UniProt P08514)
Test: cell-based or functional assay

^39SRAGK-^46RIPRGDMP-^66RYH (Rho wild-type) (from UniProt P30403 408-475) (ligand)
IC50, Platelet Aggregation: 83.2 nM
